The values below come from patent US20160376632A1, “KINASE ACTIVITY DETECTION METHODS” (REGENTS OF THE UNIVERSITY OF MINNESOTA, priority 2014, published 2016).

*1 amine or outer side, *2 acyl side, *3 side chain or, on linkers, in order; H or OH if unused. [ ]: non-standard residue; d: D form. The star is where a group is joined. Kb = biotinyl-L-lysine, O=C(CCCC[C@@H]1SC[C@@H]2NC(=O)N[C@@H]21)NCCCC[C@H](N[*:1])C(=O)[*:2]; 5FAM = O=C1OC2(c3ccc(O)cc3Oc3cc(O)ccc32)c2ccc(C(=O)*)cc21; Ahx = NCCCCCC(=O)O

Data set [1] deals with Lyn (Homo sapiens, UniProt P07948). The data set is described as follows: ELISA-based chemifluorescent detection of substrate phosphorylation, Lyn. It counts as biochemical. As to conditions: anti-phosphotyrosine 4G10, Amplex Red. How it is done:
(§1) Phosphorylation of SAStide and SFAStide-A were detected using a chemifluorescent ELISA-based assay (Lipchik et al. J Am Chem. Soc 2015, 137, 2484) in which the reaction mixture was quenched using EDTA and incubated in a 96-well neutravidin coated-plate to allow for affinity capture of the biotinylated substrates individually. The total amount of peptide in the quenched reaction mixture applied to each well was 37.5 pmol, which ensured that each well was saturated with peptide (15 pmol binding capacity) for analysis. The captured peptide was then incubated an anti-phosphotyrosine primary antibody (4G10) followed by a horseradish peroxidase-conjugated secondary antibody. Chemifluorescent detection was accomplished by incubating each well with Amplex Red reagent and hydrogen peroxide in phosphate buffer, which gave a fluorescent signal proportional to the amount of horseradish peroxidase-conjugated antibody in each well, and thus reports the degree of phosphotyrosine present.
(§2) The Validation of in vitro specificity of SAStide-Cy5 and 5-FAM-SFAStide-A using ELISA-based chemifluorescence is illustrated in FIG. 14. […] Aliquots were removed at designated time points, quenched with EDTA and alongside the TR-LRET detection as described in FIGS. 3A-F in the main text, the amount of phosphorylated substrate was also measured using ELISA-based detection.

Data set [2] in a line: Determination of LRET distance from Tb3+ luminescence lifetimes. The format is physicochemical. As to conditions: for Energy Transfer: E from lifetimes; for Ro: Förster distance; for τDA: Tb3+ luminescence lifetime of donor in presence of acceptor fluorophore; for τD: Tb3+ luminescence lifetime of donor without acceptor fluorophore; for R: estimated distance between Tb3+ and fluorophore. An excerpt: The Tb^3+ luminescence lifetimes of the biosensors in their fluorophore conjugated and unconjugated forms were used to characterize the energy transfer and LRET parameters for each sensor (FIGS. 12A, 12B and 12C). LRET follows the same principles as FRET and can have the same theory applied to calculate the distance between the fluorophore acceptor and the terbium-peptide complex donor pair. The fundamental concept of Förster theory is resonance energy transfer is proportional to
where the percentage of energy transfer, E, can be determined from the lifetime measurements of the donor in the absence of the acceptor (peptide-terbium complex (donor) without the conjugated fluorophore (acceptor)) and the donor in the presence of the acceptor.
R0 the Förster distance is determined for each acceptor/donor pair and d
The luminescence decay rates peptide biosensor-Tb^3+ complexes with and without fluorophore conjugation are illustrated in FIG. 12A pSAStide-AF488:Tb^3+, FIG. 12B pSAStide-Cy5 and FIG. 12C 5-FAM-pSFAStide-A. Data represent the average±SEM of three individual replicates.

The target of data set [3] is T1, Syk (Homo sapiens, UniProt P43405).
T1 construct: EGFP (C)
Put plainly: ELISA-based chemifluorescent detection of substrate phosphorylation, Syk. As to conditions: anti-phosphotyrosine 4G10, Amplex Red. The format is biochemical. The method, then:
as §1, §2

Lyn, sequence (P07948 whole entry, species assumed): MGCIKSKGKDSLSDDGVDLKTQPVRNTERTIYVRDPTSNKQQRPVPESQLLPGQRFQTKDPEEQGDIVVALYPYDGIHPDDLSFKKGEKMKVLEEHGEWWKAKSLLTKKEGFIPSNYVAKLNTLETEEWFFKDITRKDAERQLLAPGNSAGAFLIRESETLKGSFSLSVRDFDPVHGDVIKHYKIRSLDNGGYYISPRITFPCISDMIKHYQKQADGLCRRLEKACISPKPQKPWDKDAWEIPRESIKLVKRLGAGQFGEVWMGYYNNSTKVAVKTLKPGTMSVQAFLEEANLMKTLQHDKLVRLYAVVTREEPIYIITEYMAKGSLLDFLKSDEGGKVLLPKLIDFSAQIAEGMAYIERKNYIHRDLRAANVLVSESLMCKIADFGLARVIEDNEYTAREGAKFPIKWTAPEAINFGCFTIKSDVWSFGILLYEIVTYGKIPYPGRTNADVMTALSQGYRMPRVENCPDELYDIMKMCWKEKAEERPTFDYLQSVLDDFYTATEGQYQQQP

“5-FAM-Ahx-GGEEDEDIYEELDEPGGKbGG ({5FAM-Ahx}-GGEEDEDIYEELDEPGG[Kb]GG-NH2) [5-FAM-SFAStide-A, Src-family kinase peptide biosensor labelled with 5-carboxyfluorescein]”: in data set [1], the “phosphorylation of the substrate by Lyn in vitro” value is reported as “phosphorylated”. Also, in data set [2], the J is listed as 9.62 × 10^14 M^−1 cm^−1 nm^4, the “Quantum Yield” value stood at 0.21, the “Energy Transfer” value turned out to be 0.89 and the Ro was found to be 56.0 Å. Moreover, in data set [2], the τDA is recorded as 0.071 ms, the τD was found to be 0.64 ms and the R is recorded as 39.5 Å.

Turning to GGDEEDYEEPDEPGGCCy5GG [SAStide-Cy5], in data set [3], the “phosphorylation of the substrate by Syk in vitro” value was “phosphorylated”. Moreover, in data set [2], the J was 5.4 × 10^13 M^−1 cm^−1 nm^4, the “Quantum Yield” value is given as 0.34, the “Energy Transfer” value stood at 0.88 and the Ro is listed as 55.1 Å. Besides, in data set [2], the τDA is listed as 0.088 ms, the τD is listed as 0.72 ms and the R was 39.5 Å.
